Tests used:
[1] = Evaluation of cardiovascular effects in the conscious telemetered mouse (subcutaneous administration); format: in vivo, Crl:CD1(ICR) mice; settings: for MAP: mean ± SD, n = 4
Source text: The purpose of this study was to evaluate the haemodynamic side effects of 11i at dose level equivalent to a CNP-38 dose level eliciting haemodynamic side effects (decrease in blood pressure) in the telemetered mouse.
Male Crl:CD1(ICR) mice (age range 8-13 weeks and body weight range 27.3-35.6 g at start of dosing) were surgically implanted with a TA11PA-C10 telemetry transmitter (Data Sciences International (DSI)) in the carotid artery. The body of the transmitter was placed subcutaneously in the lateral flank of the mouse. The mice were dosed subcutaneously in a latin square crossover design with at least 72 hours between dosing occasions. Mice were dosed with 1) vehicle (10 mM succinate, 46.0 g/L mannitol, pH 4.00), 2) CNP-38 (800 μg CNP-38/kg, 10 mM succinate, 46.0 g/L mannitol, pH 4.00) or 3) 11i (800 μg CNP-38 eq/kg, 10 mM succinate, 46.0 g/L mannitol, pH 4.00). At least four mice were included at each dose level. Blood pressure (systolic (SAP), diastolic (DAP) and mean (MAP) and heart rate (HR, derived from blood pressure), were recorded using a digital data capture system linked with a DSITM Ponemah data acquisition and analysis system. The capture system allowed recording of the cardiovascular parameters whilst the mice were in individual cages. On the day of each test session the animals were weighed and a predose recording was performed for at least 60 min prior to dosing. Each mouse was returned to the home cage and the cardiovascular parameters were recorded for approximately 48 hours postdose. Blood pressure and HR were reported at the following time points: −30, −20, −10, 5, 15 and 30 min postdose and 1, 2, 6, 12, 18, 24, 30, 36, 42 and 48 hours postdose. Each time point was presented as the average value of five minute's recording prior to the time point. The monitoring period was selected to cover exposure to the test items both prior to and after Tmax.

[2] = 0.146 mg CNP-38 eq/kg
Method: Plasma total CNP-38 concentrations (conjugated and released CNP-38) were determined by quantification of the N-terminal signature peptide (sequence: […]) and C-terminal signature peptide (sequence: […]) after tryptic digestion.
LC-MS analysis was carried out by using an Agilent 1290 UPLC coupled to an Agilent 6550 iFunnel Q-TOF mass spectrometer via an ESI probe. Chromatography was performed on a Waters Acquity BEH300 C18 analytical column (50×2.1 mm I.D., 1.7 μm particle size) with pre-filter at a flow rate of 0.25 mL/min (T=25° C.). Water (UPLC grade) containing 0.2% formic acid (v/v) was used as mobile phase A and acetonitrile (UPLC grade) with 0.2% formic acid as mobile phase B. The gradient system comprised a short isocratic step at the initial parameters of 0.1% B for 3.0 min followed by a linear increase from 0.1% B to 16% B in 17 min. Mass analysis was performed in the single ion monitoring (SIM) mode, monitoring the ions m/z 482.75 [M+2H]^2+ (N-terminal) and m/z 824.36 [M+H]^1+ (C-terminal). As internal standard deuterated CNP-38 peptide was used.
Calibration standards of CNP-38 conjugate in blank plasma were prepared as follows: The thawed Li-heparin cynomolgous plasma was first homogenized, then centrifuged for 5 minutes. […] These solutions were used for the generation of a calibration curve.
For sample preparation, protein precipitation was carried out by addition of 300 μL of pre-cooled (0° C.) methanol to 100 μL of the plasma sample. 200 μL of the supernatant were transferred into a new well-plate and evaporated to dryness (under a gentle nitrogen stream at 35° C.). 100 μL of reconstitution solvent (Thermo digestion buffer, order number 60109-101, Thermo Fisher Scientific GmbH, Dreieich, Germany) were used to dissolve the residue. 20 μg of trypsin (order number V5111, Promega GmbH, Mannheim, Germany) were dissolved in 20 μL of 10 mM acetic acid. 2 μL of the trypsin solution were added to each cavity.
After 4 hours incubation at 37° C. (water bath), 5 μL of a 0.5 M TCEP solution were added to each cavity and incubated again for 5 min at 96° C. After the samples had cooled to room temperature, 3 μL acetonitrile were added. The eluates were transferred into vials. 10 μL were injected into the UPLC-MS system.
Male cynomolgus monkeys (2-4 years old, 3-5 kg) received either a single subcutaneous administration (n=3 animals) of compound 10f or a single subcutaneous (n=3 animals) administration of 11i at a dose of 0.146 mg CNP-38 eq/kg. Blood samples were collected up to 168 h post dose, and plasma was generated. Plasma levels of total CNP-38 content were analyzed as described in example 24. In order to analyze the plasma content of free CNP-38, the blood samples were acidified after withdrawal by adding 20 vol % of 0.5 M sodium citrate buffer pH 4 to stop further CNP-38 release from the conjugate. Free CNP-38 levels in plasma can e.g. be determined by ELISA using a CNP antibody that binds to the ring region of CNP, as described in the literature (U.S. Pat. No. 8,377,884 B2), or by LC-MS/MS.

[3] = target: T1, NPR-B receptor (Mus musculus, UniProt Q6VVW5); assay: Functional cGMP stimulation in NIH-3T3 cells with CNP variants; format: cell-based, murine; settings: residual NPR-B activity vs non-PEGylated CNP-38, cGMP
T1 construct: These cells express endogenously the NPR-B receptor on the cell surface; endogenous in cells; host or cells: NIH-3T3 (murine embryo fibroblast)
T1 sequence (Q6VVW5 23-1047 limits assumed): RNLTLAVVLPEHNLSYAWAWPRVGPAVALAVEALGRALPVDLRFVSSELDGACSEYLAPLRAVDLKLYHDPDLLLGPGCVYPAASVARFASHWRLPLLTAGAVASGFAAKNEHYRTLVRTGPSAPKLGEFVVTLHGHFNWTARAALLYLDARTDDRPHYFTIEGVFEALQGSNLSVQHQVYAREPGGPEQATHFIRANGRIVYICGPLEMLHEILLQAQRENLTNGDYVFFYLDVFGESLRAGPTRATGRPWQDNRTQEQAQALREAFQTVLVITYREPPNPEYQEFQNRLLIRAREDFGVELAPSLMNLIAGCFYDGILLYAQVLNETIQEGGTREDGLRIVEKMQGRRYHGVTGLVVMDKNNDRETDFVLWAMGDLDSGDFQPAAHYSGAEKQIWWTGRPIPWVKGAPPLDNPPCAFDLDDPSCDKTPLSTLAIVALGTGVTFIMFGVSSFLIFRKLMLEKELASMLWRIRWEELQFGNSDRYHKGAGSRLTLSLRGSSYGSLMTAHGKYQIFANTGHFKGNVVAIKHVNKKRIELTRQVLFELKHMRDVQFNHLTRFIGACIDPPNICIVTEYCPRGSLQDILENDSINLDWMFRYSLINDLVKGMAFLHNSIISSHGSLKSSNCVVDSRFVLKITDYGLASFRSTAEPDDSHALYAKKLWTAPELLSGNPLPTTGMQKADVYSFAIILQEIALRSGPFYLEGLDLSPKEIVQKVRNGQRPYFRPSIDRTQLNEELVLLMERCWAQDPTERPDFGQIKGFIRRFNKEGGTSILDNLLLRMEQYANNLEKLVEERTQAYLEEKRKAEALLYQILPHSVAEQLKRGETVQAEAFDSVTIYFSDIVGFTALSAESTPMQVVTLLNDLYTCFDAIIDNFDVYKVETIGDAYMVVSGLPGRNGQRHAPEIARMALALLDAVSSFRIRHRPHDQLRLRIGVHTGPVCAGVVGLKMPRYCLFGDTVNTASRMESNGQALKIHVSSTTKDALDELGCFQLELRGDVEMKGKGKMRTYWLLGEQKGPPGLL
Method: As used herein “EC50” with regard to controlled-release CNP agonist and CNP agonist refers to the concentration of controlled-release CNP agonist and CNP agonist with which a half-maximum cGMP production of NPR-B is elicited. NPR-B activity in the form of its EC50 of the controlled-release CNP agonist, of the released CNP agonist and of CNP-22 is measured by cultivating NIH-3T3 (Murine Embryo Fibroblast cell line) cells which express NPR-B on their cell surface, incubating the cells with the controlled-release CNP agonist, the corresponding released CNP agonist or CNP-22, respectively, and determining the intracellular production of the second messenger cGMP with a standard cGMP assay. In particular the assay is performed as follows: • (1) murine NIH-3T3 cells expressing endogenous NPR-B are cultivated in DMEM F-12 medium with 5% FBS and 5 mM glutamine at 37° C. and 5% CO2; • (2) for each assay 50,000 cells are resuspended in Dulbecco's PBS with IBMX and incubated with either the controlled-release CNP agonist, the corresponding released CNP agonist or CNP-22; each in different concentrations; • (3) after incubating for 30 min at 37° C. and 5% CO2, the cells are lysed and cGMP levels are determined; and • (4) generating an EC50 value from the determined cGMP levels.
Functional activity of CNP variants were determined in a cell-based assay with NIH-3T3 cells (Murine Embryo Fibroblast cell line). These cells express endogenously the NPR-B receptor on the cell surface. Stimulation of the NPR-B receptor with CNP leads to intracellular production of the second messenger cGMP which is detected with a commercially available cGMP assay. NIH-3T3 cells were routinely cultured in DMEM F-12 medium with 5% FBS and 5 mM glutamine at 37° C. and 5% CO2. For each assay, 50,000 cells were resuspended in stimulation buffer (Dulbecco's PBS with IBMX) and incubated with the CNP variants in different concentrations. CNP (dilutions were made in PBS with 0.2% BSA). After incubation of 30 min at 37° C. and 5% CO2, the cells were lyzed and cGMP levels were determined with a commercially available cGMP TR-FRET assay (Cisbio, cGMP kit, Cat. No. 62GM2PEB). PEGylated CNP variants were always characterized in comparison with the non-PEGylated version in the same experiment batch. If possible, evaluation of the residual activity was done via the relative EC50-parameter of the resulting dose-response curve (restricted model with common slope).
11i was incubated under physiological conditions (1 mg CNP-38 eq/mL), as described in Example 20. After 7 d, released CNP-38 was isolated by RP-HPLC and analyzed for bioactivity as described in Example 21.

[4] = target: T2, NPR-C (Homo sapiens, UniProt P17342); assay: NPR-C affinity assay; format: binding; settings: residual NPR-C affinity, NPR-C expressing Hek293 cells, competition with fluorescein-labelled CNP 27d
T2 construct: expressed in transfected cells; host or cells: Hek293, lentiviral transduction, CMV promoter, puromycin selection
T2 sequence (P17342 27-541): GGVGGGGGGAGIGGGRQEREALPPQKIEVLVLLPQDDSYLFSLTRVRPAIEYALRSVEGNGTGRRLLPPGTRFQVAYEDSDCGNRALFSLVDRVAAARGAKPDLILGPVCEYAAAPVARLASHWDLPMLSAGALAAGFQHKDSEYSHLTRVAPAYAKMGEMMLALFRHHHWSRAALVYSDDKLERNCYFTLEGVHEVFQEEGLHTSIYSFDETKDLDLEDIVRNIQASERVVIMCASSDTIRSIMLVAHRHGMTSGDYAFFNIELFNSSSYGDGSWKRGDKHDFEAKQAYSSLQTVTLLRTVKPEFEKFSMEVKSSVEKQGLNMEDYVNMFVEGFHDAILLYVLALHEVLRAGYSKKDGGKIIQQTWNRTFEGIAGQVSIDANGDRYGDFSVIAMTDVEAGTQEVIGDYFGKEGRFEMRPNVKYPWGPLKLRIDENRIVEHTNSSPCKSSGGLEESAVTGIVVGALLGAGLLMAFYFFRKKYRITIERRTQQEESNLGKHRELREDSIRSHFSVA

| Substance | HR ([1]; 800 μg CNP-38 (eq)/kg sc) | MAP versus vehicle at the remaining ten time points ([1]; 1 to 48 hours postdose, 800 μg CNP-38 (eq)/kg sc) | change in MAP compared to predose ([1]; 5, 15 and 30 min post dose, 800 μg CNP-38 (eq)/kg sc, CNP-38: 3 of 4 animals) | MAP ([1]; 5 min post dose, 800 μg CNP-38 (eq)/kg sc) [mmHg] | MAP ([1]; 15 min post dose, 800 μg CNP-38 (eq)/kg sc) [mmHg] | MAP ([1]; 30 min post dose, 800 μg CNP-38 (eq)/kg sc) [mmHg] | MAP ([1]; predose, 800 μg CNP-38 (eq)/kg sc) [mmHg] | effect on blood pressure ([1]; subcutaneous, dosage equivalent to CNP-38 800 μg/kg) | dose site reactions ([2]; single sc) | terminal half life ([2]; single sc, C-terminal and N-terminal peptide) [h] | total CNP-38 plasma level after 168 h ([2]; single sc, C-terminal peptide) | total CNP-38 tmax ([2]; single subcutaneous administration) [h] | EC50 compound/EC50 CNP-38 [3] | IC50 of PEGylated CNP-38/IC50 CNP-38 [4] |
| --- | --- | --- | --- | --- | --- | --- | --- | --- | --- | --- | --- | --- | --- | --- |
| Reversible Lys26 CNP-38 PEG4×10 kDa Conjugate [Compound 11i] | not impacted | no difference in MAP | same physiological increase in MAP | 122.8 ± 5.9 | 121.5 ± 7.5 | 111.5 ± 13.7 | 106.4 ± 10.7 | did not decrease blood pressure | No dose site reactions were observed | 72 to 96 | ca. 30 % of cmax | 24 |  |  |
| Permanent N-Terminal CNP-38 PEG 5 kDa Conjugate [Compound 15e] |  |  |  |  |  |  |  |  |  |  |  |  | >5 | 0.53 |
